{
  "source": "patent US6022856",
  "molecular_target": "type-2 neurotensin receptor of rats (rNT-R2) (rat)",
  "experiment": "displacement of 0.2 nM 125I-neurotensin from COS-3 cells transfected with rNT-R2",
  "data": [
    {"substance": "neuromedin N (from UniProt P30990) (peptide)", "values": [
      {"measurement": "IC50", "value": 5.1, "unit": "nM"}
    ]}
  ]
}
